Several values for one entry are separate records, joined by “and”; a condition that tells them apart may be missing. Equal entries are not always repeated. Where two headings read alike, the source gives them in different places.
What was measured:
[1] = Toxicity study, body weight (same groups as A3); format: in vivo, mouse
Protocol: (§1) Throughout the study, the animals were observed daily to check for physical signs of toxicity and signs of discomfort, and animals were weighed 2–3 times per week. Furthermore, at week -1, 5, 11, 19, 30, and 43, blood samples were collected by submandibular puncture from all animals that were in the study at that time point. All blood samples were analyzed for hematological parameters (hematocrit; hemoglobin; red blood cell count; white blood cell count; hemoglobin; mean cell hemoglobin concentration; mean cell volume; platelet count) on the scilVet abc + counter (Covetrus).
(§2) Statistical analysis was performed using GraphPad PRISM software (version 5). Significance levels were set at 5%. A simple binary logistic regression analysis was performed to determine a dose–effect relation between the absorbed dose and the histopathological findings in the kidneys using the log-likelihood ratio test as a significance indicator. The weight gain over time of control group 2 and treatment groups 1, 2, and 3 was compared to control group 1 by performing a two-way multiple comparison analysis of variance (ANOVA) with a Bonferroni correction. Significant outliers in the blood values set were detected with the Grubbs’ test and excluded from the data set. At a given time point, the measurements of all study groups were compared by performing a one-way ANOVA and in case of significance a Tukey test to correct for multiple comparisons. All data are represented as mean ± standard deviation (SD).

[2] = test system: pancreas; conditions: 100 days after once weekly for 3 consecutive weeks 37 MBq/400 pmol; cited from earlier work
Excerpt: As mentioned above, the GRPR-expressing pancreas is often named as a potential dose-limiting organ for GRPR-targeting radionuclide therapy. Pancreatitis can be diagnosed by an increase in serum lipase and amylase levels, neither of which were consistently found in this study. Furthermore, no histopathological signs of continuous or severe pancreatic toxicity was observed.

[3] = test system: mouse kidneys; test: Binary logistic regression of absorbed kidney dose versus renal histopathology; format: in vivo; conditions: 19 weeks, males and females combined, n = 30; 95% CI: 6.66–11.18 Gy
Protocol: as §2
Binary logistic regression analysis was performed to determine a dose–effect relationship for the incidence of renal toxicity (Fig. 5).

[4] = test system: healthy Balb/c mice; test: Toxicity study, hematology (same groups as A3); format: in vivo, mouse; conditions: 5, 11, 19, 30, 43 wk, mean±SD
Protocol: Five different experimental groups (10 male and 10 female healthy animals per group; n = 100) were included in the radiotoxicity study and treated as follows: control group 1: 3 × vehicle (PBS + kolliphor HS 15 (1 mg/mL)); control group 2: 3 × 1200 pmol [^175Lu]Lu-NeoB; treatment group 1: 3 × 40 MBq/400 pmol [^177Lu]Lu-NeoB; treatment group 2: 3 × 80 MBq/800 pmol [^177Lu]Lu-NeoB; and treatment group 3: 3 × 120 MBq/1200 pmol [^177Lu]Lu-NeoB.
Animals received 3 injections with an interval of 7 days between each injection.
as §1

[5] = Biodistribution of [177Lu]Lu-NeoB in healthy Balb/c mice, single i.v. injection, organ uptake by gamma counter; format: in vivo; conditions: male, mouse, pancreas, iv, total radioactivity, 1 h p.i., read-out: Pancreatic uptake
Protocol: Both the biodistribution and the radiotoxicity of [^177Lu]Lu-NeoB were studied after administration of 3 different dosages of the radioligand: 40 MBq/400 pmol [^177Lu]Lu-NeoB, 80 MBq/800 pmol [^177Lu]Lu-NeoB, and 120 MBq/1200 pmol [^177Lu]Lu-NeoB. The different dosages were acquired by diluting the stock [^177Lu]Lu-NeoB solution with PBS + kolliphor HS 15 (1 mg/mL). [^177Lu]Lu-NeoB was administered intravenously (tail) to conscious animals in a total volume of 200 µL.
Each dosage of [^177Lu]Lu-NeoB was injected in N = 15 healthy male animals. At 5 different time points post injection (p.i.) (t = 1, 4, 24, 48, and 96 h), 3 animals per dosage group were sacrificed, after which blood and organs were collected and measured to determine radioactivity uptake.
Since in the radiotoxicity studies animals received 3 injections of the radioligand at 1-week intervals, an additional group of 3 male animals were injected twice with 120 MBq/1200 pmol [^177Lu]Lu-NeoB at a 7 days (168 h) interval. […] In addition, to determine the amount of radioactivity remaining in the blood and organs right before a second injection, 3 additional male animals were injected with 40 MBq/400 pmol [^177Lu]Lu-NeoB and the biodistribution was determined at t = 168 h. […]
In the biodistribution study, the adrenal glands, brain, intestines, heart, kidneys, liver, lungs, mammary fat pad, pancreas, muscle, spleen, stomach, prostate gland (M), testes (M), ovaries (F), and urinary bladder were collected, weighed, and measured for radioactivity uptake using a gamma counter (1480 WIZARD automatic γ counter; PerkinElmer). To calculate the percentage injected activity (%IA), a vial containing 200 µL of a 1:1000 dilution of the injected [^177Lu]Lu-NeoB solutions was also measured in the gamma counter. The %IA of all organs and tumor was corrected for the percentage of radioactivity left measured in the tail (injection site).

With `CC(C)CC(CC(C)C)NC(=O)[C@H](Cc1cnc[nH]1)NC(=O)CNC(=O)[C@@H](NC(=O)[C@H](C)NC(=O)[C@H](Cc1c[nH]c2ccccc12)NC(=O)[C@H](CCC(N)=O)NC(=O)[C@@H](Cc1ccccc1)NC(=O)COCC(=O)Nc1ccc(CNC(=O)CN2CCN(CC(=O)O)CCN(CC(=O)O)CCN(CC(=O)O)CC2)cc1)C(C)C` [[^177Lu]Lu-NeoB, metal not drawn] the “Weight gain versus control group 1” value ([1]; female treatment group 2, by the end of the study) was “significantly higher weight gain”, the “Weight gain versus control groups” value ([1]; male treatment group 2, first half of the study) was “significantly less pronounced weight gain” and the “Weight gain versus control groups” value ([1]; male treatment group 3, first half of the study) was “significantly less pronounced weight gain”. The Pancreatic alterations [2] was “no pancreatic alterations”, the “ED50 of absorbed kidney dose for hydronephrosis” value [3] was 8.65 Gy and the WBC ([4]; female, treatment group 1) was 6.20 ± 2.24 103/mm3 and 7.60 ± 3.77 103/mm3 and 6.80 ± 1.64 103/mm3 and 9.70 ± 2.96 103/mm3 and 7.20 ± 3.97 103/mm3. The WBC ([4]; female, treatment group 2) was 9.10 ± 3.17 103/mm3 and 5.89 ± 2.56 103/mm3 and 7.97 ± 2.09 103/mm3 and 6.74 ± 1.77 103/mm3 and 8.98 ± 1.67 103/mm3, the WBC ([4]; male, treatment group 1) was 8.08 ± 2.38 103/mm3 and 8.53 ± 1.17 103/mm3 and 8.12 ± 1.98 103/mm3 and 9.77 ± 2.82 103/mm3 and 7.53 ± 0.83 103/mm3 and the WBC ([4]; male, treatment group 2) was 7.30 ± 2.24 103/mm3 and 6.65 ± 2.80 103/mm3 and 9.61 ± 1.52 103/mm3 and 8.68 ± 0.34 103/mm3 and 11.13 ± 3.50 103/mm3. It also gave a tissue uptake at 1 h ([5]; 40 MBq/400 pmol) of 8.27 ± 0.8 %ID/g, a tissue uptake at 1 h ([5]; 80 MBq/800 pmol) of 4.05 ± 0.4 %ID/g and a tissue uptake at 1 h ([5]; 120 MBq/1200 pmol) of 1.79 ± 0.2 %ID/g.

Reference: article PMC9605926, “Safety of [^177Lu]Lu-NeoB treatment: a preclinical study characterizing absorbed dose and acute, early, and late organ toxicity” (European Journal of Nuclear Medicine and Molecular Imaging, 2022)
